# Results taken from paper PMC9649737.
# Where a chain is given by its changes, count along the chain named. In names and notes the source's numbering stands.
# B1: H34 wild type (H34wt) catalytic antibody light chain T93A (protein)
# chain: DIQMTQSPSTLSASVGDRVTITCRASQSISSWLAWYQQKPGKAPKVLIYKASTLESGVPLRFSGSGSGTEFTLTISSLQPDDFATYYCQQYSAYRTFGQGTKVEIK
# B2: H34 wild type (H34wt) catalytic antibody light chain T97A (protein)
# chain: B1 chain with A93T, T96A
# B3: H34 wild type (H34wt) catalytic antibody light chain R96A (protein)
# chain: B1 chain with A93T, R95A
# B4: H34 wild type (H34wt) catalytic antibody light chain R96P (protein)
# chain: B1 chain with A93T, R95P
# B5: H34 wild type (H34wt) catalytic antibody light chain D1A (protein)
# chain: B1 chain with D1A, A93T
# Target: recombinant PD-1 molecule (rPD-1), Q15116
# Sequence (Q15116 25-167): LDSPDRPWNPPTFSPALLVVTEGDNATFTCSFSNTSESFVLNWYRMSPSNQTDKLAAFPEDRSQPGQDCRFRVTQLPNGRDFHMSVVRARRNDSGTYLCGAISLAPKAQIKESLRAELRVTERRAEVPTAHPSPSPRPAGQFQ
# Assay: ELISA
# Conditions: chain shown with the change; L-chain 4 µM; coated antigen (rPD1): 2 µg/mL and 50 µL/well; parent: est. 0.94; read off a plot
row,response,Binder
1,0.69 OD (490nm),B1
2,1.15 OD (490nm),B2
3,0.07 OD (490nm),B3
4,0.09 OD (490nm),B4
5,1.12 OD (490nm),B5

# Same assay, conditions: chain shown with the change; L-chain 20 µM (prozone region for this mutant); coated antigen (rPD1): 2 µg/mL and 50 µL/well; parent: est. 1.14; read off a plot
row,response,Binder
1,0.61 OD (490nm),B2
2,0.63 OD (490nm),B5

# Same assay, conditions: chain shown with the change; L-chain 20 µM; coated antigen (rPD1): 2 µg/mL and 50 µL/well; parent: est. 1.14; read off a plot
row,response,Binder
1,1.1 OD (490nm),B1
2,0.16 OD (490nm),B3
3,0.13 OD (490nm),B4
